Experimental data reported in the DeepSol protein solubility set.

Experiment: soluble on expression in E. coli; label from the status in PepcDB or PDB records

Sequence	soluble on expression in E. coli
MLSSTAIAKWQKINDVDYTWGPFKIYNISLFTETGEYKPQERPIMLTLRYNKPVDGRDFAISVAKSWANLGIALSEQNVVIERLRKILPDLKSGDALSYIALSDHGYFVLNDQVIEQEFNHEFNDAMLAIWLDPKVELSHKLITKKIEGAAQAVHYSAEYREKVTSSSEDLVSQEQRQQNLPNGTPSEATSLTEQEEREDDEKAPAISDAENDLRHSIDESAPQIVEPEQEIIPNVDPMPDYQLPVS	not soluble
MLSTGTKSLDSLLGGGFAPGVLTQVYGPYASGKTTLALQTGLLSGKKVAYVDTEGGFSPERLVQMAETRGLNPEEALSRFILFTPSDFKEQRRVIGSLKKTVDSNFALVVVDSITAHYRAEENRSGLIAELSRQLQVLLWIARKHNIPVIVINQVHFDSRTEMTKPVAEQTLGYRCKDILRLDKLPKPGLRVAVLERHRFRPEGLMAYFRITERGIEDVE	soluble
MLTIAMPKGRIFEEAVELLRRGDYALPPEFTESRKLVIDVPEENMRFILAKPMDVVTYVEHGVADLGIAGKDVLMEEERDVYELLDLQISRCHLAVAGLPGAKMNEIAPRVATKYPNIASTYFREQGEQVEIIRLNGSIELAPLIGLADRIVDIVSTGRTLRENGLVELERIAEVTSRLIVNPASYRLNGGDIERLVDRLAAVIPQP	not soluble
MLTIEPPSATFPASGGSSTHTITSVNESRMAFKVKSSNNEHYRVRPVYGFVEARGKMKFEIIRLEGPVKDDKIMLQYAEVPADETDAQAPFKAGAQQGDVTILLKTN	not soluble
MLTMRICLRATYTQKEYKWESTVNEQISAASLYDRVARVIPKAEWMGFQDDVEAILELKRKRNAVILAHNYQTPEIFHGVADIVGDSLALARKAMEVEADVIVLAGVHFMAETAKLLNPEKTVLIPDMAAGCSLADSITPEDIALLRKAYPGVPVVTYVNTSAAVKAASDICCTSGNARQVVESLGVPRVLMLPDEYLAKNVAKETSVELIAWRGHCEVHELFTADDIRELRESHPGVIVLAHPECPPEVVDAADFSGSTAVMSDYVGRERPARVVLLTECSMSDNVAVHHPDVEFIRPCNLCPHMKRITLGNIRTALEENRHEVTVDPAIAGAARRAVERMLQIMAGDPLEHHHHHH	not soluble
MLTPTPDSSPRSTSSPSQSKNGSFTPRTANILKPLMSPPSREEIMATLLDHD	soluble
MLTRSMVLVNEAWWVEPLPVHWVDKLVAELEAKLQNRGKDEYIFNGGLSVSGLQHIGRLRGEVLLGEAVRRELEKRGFRVKQLLTLYTVDPWKGKDEQRREFPDPKAAERYVGWPLDRVPDPKGCHASWVDHFWSDFGPYIGVFTDGKIEVVTTRELYKGRLKEFITTMVLPRRDEIRRVINKYRGRKPYQEGWIPLEPRCARCGRIDSTEALEILGGERVRYRCSYCGYQGESSIEDSKLNWRIEWAGVWWSLGVDFEPYGKDHATPGGSRDSAAELARLLGFEPPEGVWYEWVSLRAGGREADMSSSGFTGITPREWLDIAHPQILRFIYFLHPPTRRVVVDLSEIPSYYSQYYRAERIYFGIEEASTVEETRYLARTYELSHPSNPPAKPPSQIPYSHAAIVAQVVGPERLWTDGLERLKRAGLLGHDEYSIRWAKELLEKAYKWARRYAPKHLKFEIPDSPPEDALRRIEKPDLLEKLAEVLESVEEWSEERIKQALVEFGEGMSSSERRRFYRDFYLAIVGRPEGPRAAPLLSLMDRGFVVDRLRKAANLSRELKGR	soluble
MLTTLAISNYRTLREIVLPLGRLNVVTGANGSGKSNLYKALRLLAQTAQGGVVNALALEGGLDSCFWAGPENLTKGMLAGDTPIEATVRQAPKRLKLGFAGEDFSYLIELGLPKPDSTTLFGLDPQIKREAIWNGAKYRPASVLVERRGPMVKSRSQDGQGWITLSAHLQSSDSIFTELADPERSPEVLKLRDSIRAWRFYDHFRTDTDAPARRPQLGTATPVLHHDGRDLPSAIQTIFEIGDKSAFDHAVSDAFPGAKVRITPQAGGILQLEFQQQGLLRPLYASELSDGTLRYLLLIAALLTPRPPELMVLNEPETSLHPDLLPALARLIAKASELEHHHHHH	not soluble
MLTVTDYYKELLNFCARTLKDRDAAADLVQEAYTRFLVAQRSGAAIADPRALLFRTTRNLLIDQHRRAEVRMHLSLDTLLEEEQPLAPRHLQPEEVLAFSRYAQALYAAIESLPRRCREAFILNRFDGLSHQEVAEKMGISRNMVAQHIIRGVLVCKACDDRFHGRVVLASKPAE	not soluble
MLVAERQQKIVEIVNMRSSIRVSELSDIFSVTEETIRRDLEKLEKEHKLSRSHGGAVSIQQKESEIHFSEREITNVIEKKAIAHEAAKYVKSGDRIILDASTTAWYMAKILPDIELTVITNSMKAAIELSNKENISVISTGGILLEKSLSFAGPLAERSLETYHVNKTFLSCKGFDVHNGMSDSNEWQALLKKRMIERSDQTILMADSSKWGNREFSHIASLQDVSRLITDSGLDPASVKALEDKKVKVTAVPLSKRGLEHHHHHH	soluble
MLVKDFMTRNPITIAPETSFSEALKLMKQNKIKRLIVMKNEKIVGIVTEKDLLYASPSKATTLNIWELHYLLSKLKIEEIMTKDVVTVNENTPIEDAARIMEEKDISGLPVVDDAGRLVGIITQTDIFKVFVEIFGTKREGTIRYTMEMPDKPGELLEVAKRIYEAGGNIISIATLFEEGKDSYLATLRVENIDHEKFVKSLDEIDVKLLYYHSN	soluble
MLVPSANRWVPKFKSKKTEKKLAPDGKTELLDKDEVERKMKSLLNKLTLEMFDAISSEILAIANISVWETNGETLKAVIEQIFLKACDEPHWSSMYAQLCGKVVKELNPDITDETNEGKTGPKLVLHYLVARCHAEFDKGWTDKLPTNEDGTPLEPEMMSEEYYAAASAKRRGLGLVRFIGFLYRLNLLTGKMMFECFRRLMKDLTDSPSEETLESVVELLNTVGEQFETDSFRTGQATLEGSQLLDSLFGILDNIIQTAKISSRIKFKLIDIKELRHDKNWNS	soluble
MLYPNERKSSVHAIPYQDQLKQVQSAVDEFQKANGGLLPIQTKDMSTPLYQKYPIDFNRLAPRYIAEPPSTAFESGGDYQYVLVDVENDPTVKLIDLKMAEKIRDVKLRIQMYRQEHQYPPYKDVLSRDLFTLDEKKLGDGSSLTVTSPISGNSLPLMIDGDGEIYADYRTELASCLKKSKKTFKPGTEIQDMIWHETPFVPAFSVKYTVNDKQEPVFLENDMKKELEHHHHHH	soluble
MMEHDRARTRAWVLHPELKSDLDRRDPVPALEEAVALAAALPDLDVVGSGIVRLPKPHPGHLFGSGKVEELATLFHDNEVELVLIDGPLSPVQQRNLEKAWKVKILDRTGLILEIFSDRARTREGVLQVEMAALSYQRTRLVRAWTHLERQRGGLGFVGGPGETQIEADRRAIDEQLVRLKRQLDKVVKTRELHRKARAKVPYPIVALVGYTNAGKSTLFNRLTGAEVMAKDMLFATLDPTMRRVVLPDGPEVILSDTVGFISDLPTELVAAFRATLEEVLAADLIVHVRDIHHAATEEQARDVETILASLGVDEGRPKFEVWNKVDLLDPDKRAALRERTARDPSLFAVSAVTGEGLESLLTAIAEALAETRSEAVLTLGFADGKRRAWLFAQDVVQAEEQSDDGFRLTVLWTPRQAARYAALLEHHHHHH	soluble
MMETEVAVVPLTPLDIHNKEFSRGFRGYDEDEVNEFLDQVIKDYEMLIREKKQLEEKVAELTEKLNYFANIEETLNKSILVAQEAAEEVKRNAQKEAKLIIKEAEKNAERIISDALAKSRKIALEIEELKRQSKVFRARFRMLVEAQLDMINSRDWDELMEYEAPDLEEGAREPLSQP	not soluble
MMIKVGAAINGTDSPKAMKREHDNDDGDRTGRHKRPKTDGFTEAIQQGKFEVRLLVSSKSAGAIIGKGGENIKRLRAEFNAHVQVPDSNTPERVCTVTADEKTVLNILKDVLPRLEDNFSERDPCEVRMLVHQSHAGALIGRNGSKIKELREKCSARLKIFTGCAPGSTDRVLITSGEQKNVLGIIEEVMKELKEIPIKGSATPYLPAFNYDPSNISDYGGFPGNMPAGGPPNNRGPAPQRGGQGPPGGPRSYGGAITQGGGQRSFEAGDFQQFRGGPGPVPGYAMSAPGYPPQQGQFGAPNNAGYGYGPGGGGPVTTAQVTIPSDLGGTIIGRGGERIARIRQESGAQITLEQSNGQPERIITIKGTEQQIHSAQYLLQQCVRNSTQGRERFGGSV	not soluble
MMINIQEDKLVSAHDAEEILRFFNCHDSALQQEATTLLTQEAHLLDIQAYRAWLEHCVGSEVQYQVISRELRAASERRYKLNEAMNVYNENFQQLKVRVEHQLDPQNWGNSPKLRFTRFITNVQAAMDVNDKELLHIRSNVILHRARRGNQVDVFYAAREDKWKRGEGGVRKLVQRFVDYPERILQTHNLMVFL	soluble
MMINTQEDKLVSAHDAEEFHRFFVGHDSDLQQEVTTLLTREAHLLDIQAYKAWLEHFVAPEIKYQVISRELRSTSERRYQLNDAVNLYNENYQQLKVRVEHQMDPQNWANNPKIRFTRFVTNVTAAKDKSAPEILHVRSNLILHRARRENQVDVFYATREDKWKRIEGGGIKLVERFVDYPERIPQTHNLLVFL	soluble
MMKEASEPLASVTSINKQDSKVQDGEIRKEKIGTITPSKQHSSVHFFPKIMDSDSTTLIPLSRSFSQEMPIGFYQITSTQNSSTLSSRGQLASKSTILSCSHKDSSLGKQSTSSMVPRRQPQSSSDVDTYTFGNGEDYFLSLFGESKKLTAHTPQAENVSEHLSVILEEVGQFTSSSLGEIKIAEVNIKGLFVRLVNSSNEKEVEIGNHILQQNVNGHAVSLYQFPDNITLQANSTVTVWAAASEAKPQPPTDFVWEEQSKFRSSPDCTTILCKPNGEAIAWYTPIHWKQAWEKLETDIEFERCSVVVPSMRNHMFGWITASVSSTNEEKEEPIQKTPSQVYPVLYREKEIPPTVLPNKSPWCRNPNTSPHPYSSLIDSHDSDISESSLDTQLKPQPTKPKPDPGTKKKKAKS	soluble
MMKLNLFINANETESYIDIHAPKMNDHVQSIINAVNDLDKSHTLVGYIDKEIHIINVSDVITFQVINKNVTAITSNQKFKLKLRLYELEKQLPQHFIRISKSEIVNKYYIEKLLLEPNGLIRMYLKDAHYTYSSRRYLKSIKERLSI	not soluble
MMKNPNDIGFIHDISSLDSLRQKAVKEGKDGEQEALHAAARQFESIFTSMMLKSMREANEGFESNIMNSQNEKFYRQMLDEQMASELSANGSMGLADMIVAQLTAGQGNDKSETAMRDAANSAVEYRRVDPKKAREIEKRLIESGELSRTSHTPAKFDSPESFVNSMKPYAEKAAKALGVEPSLLLAQAALETGWGQKVVQNARGSSNNLFNIKADRSWQGDKVTTQTLEFHDNTPVKETAAFRSYSNYQDSFNDYVRFLNDNPRYETALQQRGDSESFIRGIHRAGYATDPTYADKVLQVKQKIESM	not soluble
MMKRARIIYNPTSGRELFKRHLPDVLVRLEKAGYETSCHATEGPGDATKAARQAVLREFDLVVAAGGDGTINEVVNGIADQPYRPKLGVIPVGTTNDFARAIGVPRSIEGACEVIATGEPVPIDIGCVTNEDKTRYFINIAGGGRLTELTYEVPSKLKTMLGQLAYYLKGIEMLPSIKATEAQIEYDGKLFEGEIMMFLVSLTNSVGGFEKLAPDSSLNDGLFDFIIVKKTNLAEFIRLVTLAARGEHINDPHIIYTKANRVKVRSPMQLNLDGEFGGMLPGEFVNLYRHLEVIMPKDKAEQVRTGR	not soluble
MMLITTSHRPTRRTRSFGHDLERVIPNSLYLTRGKKTIQELLMEAYDRGYERLLIINVWKGNPLKMTFIKVHPEDWGYLGYLYLHGVKLQREMGFKGLNPIREDMPLVITTAKRVGLDHLAFAQVFSELTTGKFVPRGDKSLLSIADRYNTDVLAVIERHPRGIVINFYRLDITKDRPVGPLINVKIWIMEDGRRWDYKEAFGIKVPPRRREFEGKRGEGKNSDLEHHHHHH	not soluble
